How the values were obtained:
[1] = biological target: canine IgM µ-chain antigen (protein accession number E2RE31) (canine (Canis lupus familiaris)); test: staining of cells from CLBL-1 xenograft tumours
[2] = biological target: canine IgM µ-chain antigen (protein accession number E2RE31) (canine (Canis lupus familiaris)); test: flow cytometry screening of hybridoma clones on CLBL-1 cells

Binder | % of tumour cells positive [1] [%] | % binding (tier threshold of column) [2] [%]
CL-m17A11 (antibody, V domains shown) VH: QIQLQQSGPELVKPGASVKVSCKASGYSFTDYNIYWVKQSHGKSLEWIGFFDPHNGNTTYNQKFKGKATLTVDKSSSTAFMHLNSLTSEDSAVYYCAREGYLYAMDYWGQGTSVTVSS VL: DVLMTQTPLSLPVSLGDQASISCRSSQSIEHSNGNTYLEWYLQKPGQAPKLLIFKVSNRFSGVPDRFSGSGSGTDFTLKISRMEAEDLGVYYCFQGSHVPPTFGGGTKLEIKR | > 95 | > 80
CL-c17A11 (antibody, V domains shown) VH: QIQLQQSGPELVKPGASVKVSCKASGYSFTDYNIYWVKQSHGKSLEWIGFFDPHNGNTTYNQKFKGKATLTVDKSSSTAFMHLNSLTSEDSAVYYCAREGYLYAMDYWGQGTSVTVSS VL: DVLMTQTPLSLPVSLGDQASISCRSSQSIEHSNGNTYLEWYLQKPGQAPKLLIFKVSNRFSGVPDRFSGSGSGTDFTLKISRMEAEDLGVYYCFQGSHVPPTFGGGTKLEIKR | > 95 | 
